We go through one substance from US7022666.

In this assay the target is LIF receptor/gp130 heterodimer (rat) (UniProt O70535). The assay can be described thus: cell-based or functional assay.
UniProt O70535, sequence (O70535 44-1093, chain 1 of 2): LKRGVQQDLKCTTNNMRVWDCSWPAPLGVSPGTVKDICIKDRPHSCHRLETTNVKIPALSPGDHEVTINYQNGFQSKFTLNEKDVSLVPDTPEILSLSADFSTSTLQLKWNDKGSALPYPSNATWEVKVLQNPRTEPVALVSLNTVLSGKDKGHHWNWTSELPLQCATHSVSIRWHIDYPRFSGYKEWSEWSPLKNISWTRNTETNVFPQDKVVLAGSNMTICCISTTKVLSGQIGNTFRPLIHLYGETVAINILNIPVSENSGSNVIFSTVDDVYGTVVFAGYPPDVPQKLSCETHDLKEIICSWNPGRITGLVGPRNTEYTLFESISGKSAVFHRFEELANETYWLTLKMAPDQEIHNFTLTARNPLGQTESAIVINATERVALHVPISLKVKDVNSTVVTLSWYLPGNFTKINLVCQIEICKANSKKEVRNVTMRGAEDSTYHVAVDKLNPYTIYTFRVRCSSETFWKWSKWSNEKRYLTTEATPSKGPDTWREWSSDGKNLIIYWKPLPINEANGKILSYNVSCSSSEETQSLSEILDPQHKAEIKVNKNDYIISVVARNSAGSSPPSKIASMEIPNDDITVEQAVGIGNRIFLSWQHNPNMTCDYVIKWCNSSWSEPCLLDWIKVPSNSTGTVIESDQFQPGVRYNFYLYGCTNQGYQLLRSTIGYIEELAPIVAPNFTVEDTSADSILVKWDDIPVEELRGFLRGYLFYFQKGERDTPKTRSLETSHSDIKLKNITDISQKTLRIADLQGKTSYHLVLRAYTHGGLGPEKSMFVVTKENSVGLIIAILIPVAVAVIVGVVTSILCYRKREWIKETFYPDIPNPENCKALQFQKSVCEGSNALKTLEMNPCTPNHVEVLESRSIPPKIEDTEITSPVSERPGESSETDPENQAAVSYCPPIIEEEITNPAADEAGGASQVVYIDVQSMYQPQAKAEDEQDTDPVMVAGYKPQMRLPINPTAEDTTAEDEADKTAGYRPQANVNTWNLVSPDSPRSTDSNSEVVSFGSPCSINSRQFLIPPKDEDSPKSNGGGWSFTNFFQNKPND
UniProt O70535, sequence (P40190 23-918, chain 2 of 2, further chain): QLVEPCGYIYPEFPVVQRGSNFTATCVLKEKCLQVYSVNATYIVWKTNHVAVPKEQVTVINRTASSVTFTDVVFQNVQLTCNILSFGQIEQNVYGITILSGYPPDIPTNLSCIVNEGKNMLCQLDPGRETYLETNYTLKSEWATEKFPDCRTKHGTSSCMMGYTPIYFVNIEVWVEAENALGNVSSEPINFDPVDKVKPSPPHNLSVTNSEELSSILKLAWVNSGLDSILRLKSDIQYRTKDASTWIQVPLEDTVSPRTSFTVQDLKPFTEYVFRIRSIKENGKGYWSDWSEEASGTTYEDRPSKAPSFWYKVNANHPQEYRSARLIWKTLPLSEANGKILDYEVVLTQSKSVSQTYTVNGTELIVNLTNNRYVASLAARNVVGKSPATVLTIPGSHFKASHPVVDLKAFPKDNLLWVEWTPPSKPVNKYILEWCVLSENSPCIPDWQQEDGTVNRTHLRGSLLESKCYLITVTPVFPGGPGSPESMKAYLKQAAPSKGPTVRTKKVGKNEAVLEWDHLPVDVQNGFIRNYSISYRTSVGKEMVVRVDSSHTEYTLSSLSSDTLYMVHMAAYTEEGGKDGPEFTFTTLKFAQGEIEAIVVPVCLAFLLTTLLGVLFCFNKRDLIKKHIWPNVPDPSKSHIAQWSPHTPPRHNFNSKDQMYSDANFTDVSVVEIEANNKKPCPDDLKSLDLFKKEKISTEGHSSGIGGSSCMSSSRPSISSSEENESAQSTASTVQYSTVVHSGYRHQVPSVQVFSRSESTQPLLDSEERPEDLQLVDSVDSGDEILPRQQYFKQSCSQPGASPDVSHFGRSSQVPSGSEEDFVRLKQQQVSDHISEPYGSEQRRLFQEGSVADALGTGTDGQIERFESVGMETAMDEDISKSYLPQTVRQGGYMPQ

As to “recombinant leukemia inhibitory factor (ligand)”, the conversion of metanephric mesenchyme into epithelia (lowest active dose) is 0.2 nM.
